Tests used:
[1] = molecular target: Grass carp reovirus (GCRV) inner capsid shell protein VP3 (Grass carp reovirus (GCRV)); assay: cryo-EM structure
[2] = molecular target: Grass carp reovirus (GCRV) turret protein VP1 (Grass carp reovirus (GCRV)); assay: cryo-EM structure

## Grass carp reovirus (GCRV) inner capsid shell protein VP3 (natural protein)
[1]
  stoichiometry N: 120

## Grass carp reovirus (GCRV) turret protein VP1 (natural protein)
[2]
  stoichiometry N: 5

From article PMC2900196
